Measurements: article PMC6956826

Molecular target: SNID2 peptide of the CD3 zeta chain
Assay: ITC

Substance	Kd	dH	stoichiometry N
HIV-2 consensus Nef	12 µM	-12.3 kcal/mol	1.08
SIVmac239 Nef core domain harboring the C-terminal region (domain or fragment)		-14.2 kcal/mol	1.05
